Laboratory results published in patent US20070014720A1 (published 2007).

T1: human CD20 (human, UniProt P11836 1-297)
T1 sequence (looked up): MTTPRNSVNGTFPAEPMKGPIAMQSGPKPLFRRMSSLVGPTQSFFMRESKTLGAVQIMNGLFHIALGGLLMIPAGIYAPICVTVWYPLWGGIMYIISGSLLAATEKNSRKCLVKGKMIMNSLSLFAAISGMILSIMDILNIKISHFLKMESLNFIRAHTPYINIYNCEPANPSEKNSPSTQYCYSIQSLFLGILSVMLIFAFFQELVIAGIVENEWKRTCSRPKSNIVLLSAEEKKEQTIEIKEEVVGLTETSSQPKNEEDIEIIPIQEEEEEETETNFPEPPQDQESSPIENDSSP


Molecular target: T1, human CD20
Assay: cell-based or functional assay

Binder | % Lysis Daudi 0.001 µg/ml ADCC [%] | % Lysis Daudi 1 µg/ml ADCC [%] | % Lysis Raji 0.001 µg/ml ADCC [%] | % Lysis Raji 1 µg/ml ADCC [%] | % Lysis Ramos 0.001 µg/ml ADCC [%] | % Lysis Ramos 1 µg/ml ADCC [%] | EC50 µg/ml Daudi CDC [µg/mL] | EC50 µg/ml Raji CDC [µg/mL] | EC50 µg/ml Ramos Apoptosis Alamar Blue [µg/mL] | EC50 µg/ml Ramos Apoptosis Annexin V [µg/mL]
mAb 2.4.1 (antibody, human IgG1, V domains shown) VH: EVQLVQSGAEVKKPGESLKISCKGSGYSFTNYWIGWVRQMPGKGLEWMGIIYPGDSDTRYSPSFQGQVTISADKSISTAYLQWSSLKASDTAMYYCARHGDYYASESSAFDIWGQGTMVTVSS VL: not shown | 36 | 76 | 9 | 24 | -3 | 46 | ~10 | 3.72 | 0.112 | 4.68
mAb 1.12.3 (antibody, human IgG1, V domains shown) VH: EVQLVQSGAEVKKPGESLKISCKGSGYSFTSYWIGWVRQMSGKGLEWMGIIYPGDSDTRYSPSFQGQVTISADKSISTAYLQWSSLKASDTAIYYCARHPSYGSGSPNFDYWGQGTLVTVSS VL: DIVMTQTPLSSPVTLGQPASISCRSSQSLVYSDGNTYLSWLQQRPGQPPRLLFYKISNRFSGVPDRFSGSGAGTDFTLKISRVEAEDVGVYYCVQATQFPLTFGGGTKVEIK | 17 | 63 | 3 | 10 | 2 | 29 | 9.39 | 1.31 | 0.026 | 0.191
mAb 1.4.3 (antibody, human IgG1, V domains shown) VH: EVQLVQSGAEVKKPGESLKISCKGSGYSFTSYWIGWVRQMPGKGLEWMGIIYPGDSDTRYSPSFQGQVTISADKSITTAYLQWSSLKASDTAMYYCARHPSYGSGSPNFDYWGQGTLVTVSS VL: not shown | 62 | 72 | 7 | 37 | 4 | 52 | ~10 | 1.3 | 0.11 | 2.86
mAb 2.2.2 (antibody, human IgG1, V domains shown) VH: EVQLVQSGAEVKKPGESLKISCKGSGYSFTSYWIGWVRQMPGKGLEWMGIIYPGDSDTKYSPSFQGQVTISADKSISTAYLQWSSLKASDTAMYYCARQGDFWSGNGGMDVWGQGTTVTVSS VL: DIVMTQTPLSSPVTLGQPASISCRSSQSLVSRDGNTYLSWLQQRPGQPPRLLIYKISNRFSGVPDRFSGSGAGTDFTLKISRVEVEDVGVYYCMQATQFPITFGQGTRLEIK | 60 | 79 | 7 | 44 | 12 | 65 | 1.66 | 0.5 | 0.0207 | 0.373

Same assay, conditions: not given

Binder | EC50 µg/ml Ramos Apoptosis Cell Titer Glo [µg/mL] | EC50 µg/ml Ramos Apoptosis WST-1 [µg/mL] | EC50 µg/ml Ramos CDC [µg/mL]
mAb 2.4.1 (antibody, human IgG1, V domains shown) VH: EVQLVQSGAEVKKPGESLKISCKGSGYSFTNYWIGWVRQMPGKGLEWMGIIYPGDSDTRYSPSFQGQVTISADKSISTAYLQWSSLKASDTAMYYCARHGDYYASESSAFDIWGQGTMVTVSS VL: not shown | 0.983 | 0.042 | 3.12
mAb 1.12.3 (antibody, human IgG1, V domains shown) VH: EVQLVQSGAEVKKPGESLKISCKGSGYSFTSYWIGWVRQMSGKGLEWMGIIYPGDSDTRYSPSFQGQVTISADKSISTAYLQWSSLKASDTAIYYCARHPSYGSGSPNFDYWGQGTLVTVSS VL: DIVMTQTPLSSPVTLGQPASISCRSSQSLVYSDGNTYLSWLQQRPGQPPRLLFYKISNRFSGVPDRFSGSGAGTDFTLKISRVEAEDVGVYYCVQATQFPLTFGGGTKVEIK | 0.0989 | 0.0383 | 2.07
mAb 1.4.3 (antibody, human IgG1, V domains shown) VH: EVQLVQSGAEVKKPGESLKISCKGSGYSFTSYWIGWVRQMPGKGLEWMGIIYPGDSDTRYSPSFQGQVTISADKSITTAYLQWSSLKASDTAMYYCARHPSYGSGSPNFDYWGQGTLVTVSS VL: not shown | 0.342 | 0.0514 | 13.1
mAb 2.2.2 (antibody, human IgG1, V domains shown) VH: EVQLVQSGAEVKKPGESLKISCKGSGYSFTSYWIGWVRQMPGKGLEWMGIIYPGDSDTKYSPSFQGQVTISADKSISTAYLQWSSLKASDTAMYYCARQGDFWSGNGGMDVWGQGTTVTVSS VL: DIVMTQTPLSSPVTLGQPASISCRSSQSLVSRDGNTYLSWLQQRPGQPPRLLIYKISNRFSGVPDRFSGSGAGTDFTLKISRVEVEDVGVYYCMQATQFPITFGQGTRLEIK | 0.139 | 0.00076 | 1.03
